Source: patent US20220363757A1 (SYMPHOGEN A S, published 2022)
Positions count from the first letter of the chain named.

B1: Fab fragment of antibody 15532 (Fab, V domains shown, not shown: a dimerising Fc or GST)
VH: QVQLQQWGAGLLRPSETLSLTCAVYGESFSGYYWNWIRQPPGKGLEWIGEINHSGSTNYNPSLKSRVTISVDTSKTQFSLKLSSVTAADTAVYYCARGWDLLDWNDYWNEYWGQGTLVTVSS
VL: EIVLTQSPATLSLSPGERATLSCRASQSVSSYLAWYQQKPGQAPRLLIYDASNRATGIPARFSGSGSGTDFTLTISSLEPEDFAVYYCQQRSNWPLTFGGGTKVEIKR
notes: monomeric Fab made by GingisKHAN digestion of the IgG1
B2: Fab fragment of antibody 15431 (Fab, V domains shown, not shown: a dimerising Fc or GST)
VH: QVQLQQSGPGLVKPSQTLSLTCAISGDSVSSNSAAWNWIRQSPSRGLEWLGRTYYRSKWYNDYAVSVKSRITINPDTSKNQFSLQLNSVTPEDTAVYYCARDDDWNDFDYWGQGTLVTVSS
VL: B1 VL
notes: as for B1
B3: Fab fragment of antibody 15011 (Fab, V domains shown, not shown: a dimerising Fc or GST)
VH: EVQLLESGGGLVQPGGSLRLSCAASGFDFRSYAMMWVRQAPGKGLEWVGGINGEVGGSNTYYAPAVKGRATISRDNSKNTLYLQMNSLRAEDTAVYYCVKGAGACGICNDDIDAWGQGTLVTVSS
VL: SYELTQDPAVSVALGQTVRITCSGAGSYAGSYYYGWHQQKPGQAPVTVIYDNDKRPSNIPDRFSGSSSGNTASLTITGAQAEDEADYYCGSTNDNDDGGLFGSGTKVTVLG
notes: as for B1
B4: Fab fragment of antibody 15572 (Fab, V domains shown, not shown: a dimerising Fc or GST)
VH: QLQLQESGPGLVKPSETLSLTCTVSGDSISSSSYYWGWIRQPPGKGLEWIGSIFYSGNTYYNPSLKSRVTISVDTSKNQFSLKLSSVTAADTAVYYCAREDDFLTDYYGAFDIWGQGTMVTVSS
VL: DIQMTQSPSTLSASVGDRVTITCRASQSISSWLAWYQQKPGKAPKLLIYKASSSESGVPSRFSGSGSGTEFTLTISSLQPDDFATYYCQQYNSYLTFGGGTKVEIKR
notes: as for B1

Columns and labels:
Assay in all cases: SPR, Fab over captured mutant LAG-3-Fc;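 further: fc fusion variants captured on anti-human IgG Fc sensor, Fab injected with association then dissociation phases, KD obtained from Langmuir one-to-one fit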
[1] = target: T1, human LAG-3 domain 1-2 Fc fusion, point mutation #65 R125A (human, UniProt P18627 23-266)
T1 construct: not shown: human IgG1 Fc, AA P101-K330
T1 sequence: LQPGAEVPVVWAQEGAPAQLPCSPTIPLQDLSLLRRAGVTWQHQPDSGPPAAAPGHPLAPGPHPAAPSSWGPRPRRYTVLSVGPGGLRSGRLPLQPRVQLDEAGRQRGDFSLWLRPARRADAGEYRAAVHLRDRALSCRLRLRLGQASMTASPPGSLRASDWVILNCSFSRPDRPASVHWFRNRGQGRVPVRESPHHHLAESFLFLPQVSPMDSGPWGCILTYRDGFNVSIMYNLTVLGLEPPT

[2] = target: T2, human LAG-3 domain 1-2 Fc fusion, point mutation #3 P43A (human, UniProt P18627 23-266)
T2 construct: not shown: human IgG1 Fc, AA P101-K330
T2 sequence: T1 sequence with P21A, A103R

[3] = target: T3, human LAG-3 domain 1-2 Fc fusion, point mutation #61 R119A (human, UniProt P18627 23-266)
T3 construct: not shown: human IgG1 Fc, AA P101-K330
T3 sequence: T1 sequence with R97A, A103R

[4] = target: T4, human LAG-3 domain 1-2 Fc fusion, point mutation #27 L80A (human, UniProt P18627 23-266)
T4 construct: not shown: human IgG1 Fc, AA P101-K330
T4 sequence: T1 sequence with L58A, A103R

[5] = target: T5, human LAG-3 domain 1-2 Fc fusion, point mutation #17 Q66A (human, UniProt P18627 23-266)
T5 construct: not shown: human IgG1 Fc, AA P101-K330
T5 sequence: T1 sequence with Q44A, A103R

[6] = target: T6, human LAG-3 domain 1-2 Fc fusion, point mutation #38 S91A (human, UniProt P18627 23-266)
T6 construct: not shown: human IgG1 Fc, AA P101-K330
T6 sequence: T1 sequence with S69A, A103R

[7] = target: T7, human LAG-3 domain 1-2 Fc fusion, point mutation #69 R129A (human, UniProt P18627 23-266)
T7 construct: not shown: human IgG1 Fc, AA P101-K330
T7 sequence: T1 sequence with A103R, R107A

[8] = target: T8, human LAG-3 domain 1-2 Fc fusion, point mutation #16 H65A (human, UniProt P18627 23-266)
T8 construct: not shown: human IgG1 Fc, AA P101-K330
T8 sequence: T1 sequence with H43A, A103R

[9] = target: T9, human LAG-3 domain 1-2 Fc fusion, point mutation #80 R163A (human, UniProt P18627 23-266)
T9 construct: not shown: human IgG1 Fc, AA P101-K330
T9 sequence: T1 sequence with A103R, R141A

KD mutant/KD wild type [1]	KD mutant/KD wild type [2]	KD mutant/KD wild type [3]	KD mutant/KD wild type [4]	KD mutant/KD wild type [5]	KD mutant/KD wild type [6]	KD mutant/KD wild type [7]	KD mutant/KD wild type [8]	KD mutant/KD wild type [9]	binding result [2]	binding result [3]	binding result [5]	binding result [7]	binding result [8]	binding result [9]	Binder
0.9 fold	3.8 fold	3.2 fold	0.6 fold	2.7 fold	5.3 fold	3 fold	3.8 fold	2.5 fold							B1
1.1 fold			0.5 fold		0.7 fold				no binding (tested: 300 nM)	no binding (tested: 300 nM)	no binding (tested: 300 nM)	no binding (tested: 300 nM)	no binding (tested: 300 nM)	no binding (tested: 300 nM)	B2
1.1 fold	0.6 fold	0.6 fold	0.8 fold	0.7 fold	0.8 fold	0.7 fold	0.5 fold	0.6 fold							B3
1.1 fold			0.6 fold		0.7 fold				no binding (tested: 300 nM)	no binding (tested: 300 nM)	no binding (tested: 300 nM)	no binding (tested: 300 nM)	no binding (tested: 300 nM)	no binding (tested: 300 nM)	B4
